In paper PMC3931076, “Crystal Structures of Leukotriene C4 Synthase in Complex with Product Analogs” (The Journal of Biological Chemistry, 2013):

Biological target: the molecule itself
Assay: crystal structure; sitting drop vapor diffusion at room temperature, 3.5 mg/ml protein with 1 mM GSH; 1.8-2.2 M NH4SO4, 0.2 M NaCl, 0.1 M sodium cacodylate pH 6.1-6.8; analog I soaked, analogs II and III co-crystallised; space group F23

B1: Leukotriene C4 synthase (human, wild type) (enzyme)
chain: MKDEVALLAAVTLLGVLLQAYFSLQVISARRAFRVSPPLTTGPPEFERVYRAQVNCSEYFPLFLATLWVAGIFFHEGAAALCGLVYLFARLRYFQGYARSAQLRLAPLYASARALWLLVALAALGLLAHFLPAALRAALLGRLRTLLPWA
notes: Leukotriene C4 synthase, human, wild type; integral membrane protein in dodecyl maltoside; Expression and purification 'essentially as described (15)'; The trimer arises by crystal symmetry (space group F23); also called LTC4S; LTC4 synthase
For B1, the “stoichiometry N” value was 3.
